Measurements reported in paper PMC3437054.

Columns and labels:
[1] = target: PCNA (Saccharomyces cerevisiae) (UniProt P15873); conditions: cited from earlier work
[2] = target: Replication factor C (RFC-A/B/C/D/E) (Saccharomyces cerevisiae, UniProt P38630;P40339;P38629;P40348;P38251 1-861;1-323;1-340;1-353;1-354); assay: stopped-flow TAMRA fluorescence
[3] = target: Replication factor C (RFC-A/B/C/D/E);PCNA (wild type) (Saccharomyces cerevisiae;Saccharomyces …, UniProt P38630;P40339;P38629;P40348;P38251;P15873 1-861;1-323;1-340;1-353;1-354;1-258, |); assay: fluorescence intensity

Molecule | Kd [1] | binding result [2] | Kd [3]
RFC (from UniProt P38630) | 1 nM |  | 
40/65-nt ptDNA-TAMRA (mixed, 3' amino linker on primer) DNA 1: ATTTCCTTCAGCAGATAGGAACCATACTGATTCACATGGC DNA 2: TAGTTAGAACCTAAGCATATTAGTAGCCATGTGAATCAGTATGGTTCCTATCTGCTGAAGGAAAT |  | binds | 1 nM
